{"source": "paper PMC3217979", "about": "“Thermostable Hexameric Form of Eis (Rv2416c) Protein of M. tuberculosis Plays an Important Role for Enhanced Intracellular Survival within Macrophages” (PLoS ONE, 2011)", "proteins": {"B1": {"name": "Eis protein (Rv2416c) of M. tuberculosis (enzyme)", "chain": "MTVTLCSPTEDDWPGMFLLAAASFTDFIGPESATAWRTLVPTDGAVVVRDGAGPGSEVVGMALYMDLRLTVPGEVVLPTAGLSFVAVAPTHRRRGLLRAMCAELHRRIADSGYPVAALHASEGGIYGRFGYGPATTLHELTVDRRFARFHADAPGGGLGGSSVRLVRPTEHRGEFEAIYERWRQQVPGGLLRPQVLWDELLAECKAAPGGDRESFALLHPDGYALYRVDRTDLKLARVSELRAVTADAHCALWRALIGLDSMERISIITHPQDPLPHLLTDTRLARTTWRQDGLWLRIMNVPAALEARGYAHEVGEFSTVLEVSDGGRFALKIGDGRARCTPTDAAAEIEMDRDVLGSLYLGAHRASTLAAANRLRTKDSQLLRRLDAAFASDVPVQTAFEF", "notes": "also called aminoglycoside acetyltransferase Eis; recombinant Eis protein"}}, "key": {"[1]": {"target": "the molecule itself", "assay": "SEC; […], pH 8.0, 25°C; […]"}, "[2]": {"target": "the molecule itself", "assay": "SDS-PAGE of unboiled and boiled samples; 10 µg Eis in 1% SDS, 0.125 M Tris pH 6.8, boiled or unboiled; 10% acrylamide gel, 0.1% SDS in Tris/Glycine pH 8.0; Coomassie stain"}}}
{"protein": "B1", "values": [{"measurement": "stoichiometry N", "setting": "[1]", "value": 6}, {"measurement": "stoichiometry N", "setting": "[2]", "value": 3}]}
